Experimental data: US20250249113A1 (DEBIOPHARM RESEARCH AND MANUFACTURING S A, published 2025)
Primed or numbered codes have the meaning given here. Side-chain parts run from the residue outwards. PEG4′ = not defined here; Mal = not defined here

Target: recombinant human Cathepsin B (human, UniProt P07858 80-333)
Experiment: cell-based or functional assay

Cat B-induced drug release, fold faster than the reference Cys-MC-Val-Cit-PABC-MMAF: 20 times
Binder: {DM1-Mal}-FKK([PEG4′-Mal-Cys-Ac])F-OH (reading uncertain; also: printed as DM1-Mal-Phe-Lys-Lys(PEG4-Mal-Cys-Ac)-Phe-OH) [Compound 5: DM1-Mal-Phe-Lys-Lys(PEG4-Mal-Cys-Ac)-Phe-OH]
